From patent publication US20230287457

System: Nla type I-C Cascade + Cas3 expressed in E. coli (Neisseria lactamica)
Assay: cell_activity
Details: PAM 5'-TTC; E. coli plasmid interference

native CRISPR spacer 1 crRNA ; spacer 1 target with 5'-TTC PAM
activity (fold reduction in colony count): 1000
